Substrate: CC(C)(O)[C@@H]1CC[C@](C)([C@H]2[C@@H](O)C[C@@]3(C)[C@@H]4C[C@H](O[C@@H]5O[C@H](CO)[C@@H](O)[C@H](O)[C@H]5O)[C@H]5C(C)(C)[C@@H](O[C@@H]6OC[C@@H](O)[C@H](O)[C@H]6O)CC[C@@]56C[C@@]46CC[C@]23C)O1
Test: UHPLC kinetic assay of acetylation
Format: biochemical, Astragalus propinquus
Settings: acetyl-CoA as acyl donor

B1: AmAT7-3 (Astragalus propinquus; A310G) (protein)
chain: MSSLRLVSSSTIQAANDNNDDSSQLIDLTVWDLIGLERESIQQGLLYHHPNQVDTPNQIQHLKHSLSSTLSFFPPFAGRLVITEYEDNTATCFIACNNAGALFVHAVAENTTISDILQPNKYVPPIVNSLFSLNGVKNREGTIQPLLVVQVTELVDGIFIGLTVNHVVADGKSFWLFVNSWAEISRGFQKPSKLPTLERWFLNDTDHPIRFSFSMEEEKKKFQSGQLTTRFFHFTRENIAHLKSKANGEVTLGNTERRISSLQALLAHVWRSVVRCERIDPQEVLYYILLIDARTRLIPPLEDDYFGNAGDAGVVIMKAGELLEGGLGNVAWNMNKVISLNSDEKIKNRYKSWLRTPQLPSMGMHTTFASQLLIIANSPRFNVYGNDFGWGKPLAVRSSAENKRDCKIVLFAGAEEGSIDIEVCLPYEILEALGNDAEFLDNHSIG
notes: full length cloned in pET-28a(+), E. coli BL21(DE3), Ni-NTA; for kinetics and crystals pET28a-TEV plus size exclusion
Km (paper prints 'toward 1a', read as formation of product 1a (C3'-O-acetylation) from 1): 76.7 µM

B2: AmAT7-3 (Astragalus propinquus; A310W) (protein)
chain: MSSLRLVSSSTIQAANDNNDDSSQLIDLTVWDLIGLERESIQQGLLYHHPNQVDTPNQIQHLKHSLSSTLSFFPPFAGRLVITEYEDNTATCFIACNNAGALFVHAVAENTTISDILQPNKYVPPIVNSLFSLNGVKNREGTIQPLLVVQVTELVDGIFIGLTVNHVVADGKSFWLFVNSWAEISRGFQKPSKLPTLERWFLNDTDHPIRFSFSMEEEKKKFQSGQLTTRFFHFTRENIAHLKSKANGEVTLGNTERRISSLQALLAHVWRSVVRCERIDPQEVLYYILLIDARTRLIPPLEDDYFGNAWDAGVVIMKAGELLEGGLGNVAWNMNKVISLNSDEKIKNRYKSWLRTPQLPSMGMHTTFASQLLIIANSPRFNVYGNDFGWGKPLAVRSSAENKRDCKIVLFAGAEEGSIDIEVCLPYEILEALGNDAEFLDNHSIG
notes: as for B1
Km (paper prints 'toward 1b', read as formation of product 1b (C4'-O-acetylation) from 1): 168.3 µM
